The target of this assay is Recombinant FIP-sch3 from Stachybotrys chartarum (Stachybotrys chartarum IBT 7711). The experiment in a line: SEC; Superdex 75 (10/300 GL) gel filtration in PBS (10 mM, pH 7.2) after the GST tag was removed; markers 66, 43, 29 and 17 kDa; calculated mass about 28.3 kDa against 14.1 kDa for the monomer.

A word on the stoichiometry N: it is a count of units in the complex or per binding partner. “Recombinant FIP-sch3 from Stachybotrys chartarum (natural protein)”: the stoichiometry N is 2.

Values taken from publication PMC5173029.
